Values of other authors, collected in article PMC11612555, “Impact of camel milk lactoferrin peptides against breast cancer cells: in silico and in vitro study” (Frontiers in Pharmacology, 2024).

B1: lactoferrin (protein, UniProt P02788 20-710, looked up)
Lactotransferrin: GRRRSVQWCAVSQPEATKCFQWQRNMRKVRGPPVSCIKRDSPIQCIQAIAENRADAVTLDGGFIYEAGLAPYKLRPVAAEVYGTERQPRTHYYAVAVVKKGGSFQLNELQGLKSCHTGLRRTAGWNVPIGTLRPFLNWTGPPEPIEAAVARFFSASCVPGADKGQFPNLCRLCAGTGENKCAFSSQEPYFSYSGAFKCLRDGAGDVAFIRESTVFEDLSDEAERDEYELLCPDNTRKPVDKFKDCHLARVPSHAVVARSVNGKEDAIWNLLRQAQEKFGKDKSPKFQLFGSPSGQKDLLFKDSAIGFSRVPPRIDSGLYLGSGYFTAIQNLRKSEEEVAARRARVVWCAVGEQELRKCNQWSGLSEGSVTCSSASTTEDCIALVLKGEADAMSLDGGYVYTAGKCGLVPVLAENYKSQQSSDPDPNCVDRPVEGYLAVAVVRRSDTSLTWNSVKGKKSCHTAVDRTAGWNIPMGLLFNQTGSCKFDEYFSQSCAPGSDPRSNLCALCIGDEQGENKCVPNSNERYYGYTGAFRCLAENAGDVAFVKDVTVLQNTDGNNNEAWAKDLKLADFALLCLDGKRKPVTEARSCHLAMAPNHAVVSRMDKVERLKQVLLHQQAKFGRNGSDCPDKFCLFQSETKNLLFNDNTECLARLHGKTTYEKYLGPQYVAGITNLKKCSTSPLLEACEFLRK
B2: bovine lactoferrin (protein, UniProt P24627 20-708, looked up)
Lactotransferrin: APRKNVRWCTISQPEWFKCRRWQWRMKKLGAPSITCVRRAFALECIRAIAEKKADAVTLDGGMVFEAGRDPYKLRPVAAEIYGTKESPQTHYYAVAVVKKGSNFQLDQLQGRKSCHTGLGRSAGWIIPMGILRPYLSWTESLEPLQGAVAKFFSASCVPCIDRQAYPNLCQLCKGEGENQCACSSREPYFGYSGAFKCLQDGAGDVAFVKETTVFENLPEKADRDQYELLCLNNSRAPVDAFKECHLAQVPSHAVVARSVDGKEDLIWKLLSKAQEKFGKNKSRSFQLFGSPPGQRDLLFKDSALGFLRIPSKVDSALYLGSRYLTTLKNLRETAEEVKARYTRVVWCAVGPEEQKKCQQWSQQSGQNVTCATASTTDDCIVLVLKGEADALNLDGGYIYTAGKCGLVPVLAENRKSSKHSSLDCVLRPTEGYLAVAVVKKANEGLTWNSLKDKKSCHTAVDRTAGWNIPMGLIVNQTGSCAFDEFFSQSCAPGADPKSRLCALCAGDDQGLDKCVPNSKEKYYGYTGAFRCLAEDVGDVAFVKNDTVWENTNGESTADWAKNLNREDFRLLCLDGTRKPVTEAQSCHLAVAPNHAVVSRSDRAAHVKQVLLHQQALFGKNGKNCPDKFCLFKSETKNLLFNDNTECLAKLGGRPTYEEYLGTEYVTAIANLKKCSTSPLLEACAFLTR
notes: lactoferrin from bovine milk

Legend:
[1] = test system: MDAmb231 cells; set-up: method as in Rascón-Cruz et al., 2021b; conditions: against MDAmb231; ref Rascón-Cruz et al., 2021b
[2] = test system: HeLa cells; set-up: method as in Rascón-Cruz et al., 2021b; conditions: against HeLa; ref Rascón-Cruz et al., 2021b
[3] = test system: T-47D; set-up: method as in Zhang et al., 2014; conditions: ref Zhang et al., 2014
[4] = test system: MDA-MB-231; set-up: method as in Zhang et al., 2014; conditions: ref Zhang et al., 2014
[5] = test system: Hs578T; set-up: method as in Zhang et al., 2014; conditions: ref Zhang et al., 2014
[6] = test system: MCF-7; set-up: method as in Zhang et al., 2014; conditions: ref Zhang et al., 2014
[7] = test system: MCF-10-2A; set-up: method as in Zhang et al., 2014; conditions: normal breast cell line MCF-10-2A; ref Zhang et al., 2014

Molecule | selective index [1] | selective index [2] | proliferation [3] | proliferation [4] | proliferation [5] | proliferation [6] | proliferation [7]
B1 | 11.68 | 9.59 |  |  |  |  | 
B2 |  |  | inhibited | inhibited | inhibited | inhibited | not
